B1: P1243 (evasin from Amblyomma americanum), purified, C-terminal StrepII:8xHis tag (natural protein)
chain: ETGRNHTEDNSTEYYDYEEARCACPARHLNNTNGTVLKLLGCHYFCNGTLCTAPDGYPCYNLTAQQVRTLTTYPNTSCAVGVCMKGTCVKNGTMEQCFKTP
B2: CCL22 (ligand, human, UniProt O00626 25-93, looked up)
chain: GPYGANMEDSVCCRDYVRYRLPLRVVKHFYWTSDSCPRPGVVLLTFRDKEICADPRVPWVKMILNKLSQ
notes: source: bought: Peprotech
B3: CCL3 (ligand, human, UniProt P10147 24-92, looked up)
chain: SLAADTPTACCFSYTSRQIPQNFIADYFETSSQCSKPGVIFLTKRSRQVCADPSEEWVQKYVSDLELSA
notes: source: bought: Peprotech
B4: CCL5 (ligand, human, UniProt P13501 24-91, looked up)
chain: SPYSSDTTPCCFAYIARPLPRAHIKEYFYTSGKCSNPAVVFVTRKNRQVCANPEKKWVREYINSLEMS
notes: source: bought: Peprotech
B5: CCL1 (ligand, human, UniProt P22362 24-96, looked up)
chain: KSMQVPFSRCCFSFAEQEIPLRAILCYRNTSSICSNEGLIFKLKRGKEACALDTVGWVQRHRKMLRHCPSKRK
notes: source: bought: Peprotech
B6: CCL3L1 (ligand, human, UniProt P16619 24-93, looked up)
chain: APLAADTPTACCFSYTSRQIPQNFIADYFETSSQCSKPSVIFLTKRGRQVCADPSEEWVQKYVSDLELSA
notes: source: bought: Peprotech

Experiments:
CCL3 = molecular target: B3; assay: cell-based or functional assay
CCL3L1 = molecular target: B6; assay: cell-based or functional assay
CCL5 = molecular target: B4; assay: cell-based or functional assay
[1] = molecular target: B1; assay: BLI; titration; evasin immobilised on the sensor through the C-terminal His tag; chemokine 300 nM to 0.4 nM (CXCL2: 600 nM to 1.2 nM), at least five concentrations; non-interacting reference protein; one-site binding fit or steady state analysis; conditions: both partners purified

| Binder | binding result [1] | further results |
| --- | --- | --- |
| B1 | – | mean IC50 (three biological replicates) of inhibition of THP-1 cell migration induced by the EC80 dose of CCL3 (CCL3): 6.5e-09 M; mean IC50 (three biological replicates) of inhibition of THP-1 cell migration induced by the EC80 dose of CCL3L1 (CCL3L1): 1e-09 M; mean IC50 (three biological replicates) of inhibition of THP-1 cell migration induced by the EC80 dose of CCL5 (CCL5): 8.9e-09 M |
| B2 | binds | – |
| B3 | binds | – |
| B4 | binds | – |
| B5 | binds | – |
| B6 | binds | – |
